Assay [1] has as its target pIII coat protein of bacteriophage CA1000 (filamentous bacteriophage (helper phage R408 derivative)).
Assay [2] has as its target pIII coat protein of bacteriophage CA2000 (filamentous bacteriophage (helper phage R408 derivative)).
Assay [3] has as its target pIII coat protein of bacteriophage CA1051 (filamentous bacteriophage (helper phage R408 derivative)).
The target in assay [4] is pIII coat protein of bacteriophage TARGETBACK (filamentous bacteriophage (helper phage R408 derivative)).
In assay [5] the target is pIII coat protein of bacteriophage CA2000 (OMP1) (filamentous bacteriophage (helper phage R408 derivative)).
Assay [6] addresses pIII coat protein of bacteriophage CA2000 (filamentous bacteriophage (helper phage R408 derivative)). This is another data set of the same source.
The target in assay [7] is pIII coat protein of bacteriophage CA2000 (OMP2) (filamentous bacteriophage (helper phage R408 derivative)).

On to “host encoded leader peptidase (from UniProt P00803) (enzyme)”, for which the infective phage particles (OmR transducing units) in assay [1] was 1e+08 OmR T.U./ml; in assay [2], under 50 OmR T.U./ml; in assay [3] it was 30000 OmR T.U./ml; in assay [4] it was 1000 OmR T.U./ml.
As to “OmpT protease (from UniProt P09169) (enzyme)”, the results for the infective phage particles (ampicillin resistant transducing units) from OmpT mediated maturation of pIII in assay [5], in assay [6] and in assay [7] were 2500 ApR T.U./ml, under 50 ApR T.U./ml and 18000 ApR T.U./ml, respectively.

For the origin of these results see patent US5602021.
